Where two headings read alike, the source gives them in different places.
Experiments:
Experiment in all cases: two-hybrid library CCmax;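 further: natural log of median RNA to DNA barcode read ratio; higher means stronger binding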
[1] = biological target: T1, 4H2504-AA; conditions: mean of both orientations
T1 chain: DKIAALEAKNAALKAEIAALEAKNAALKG

[2] = biological target: T2, 4H2621-AA; conditions: mean of both orientations
T2 chain: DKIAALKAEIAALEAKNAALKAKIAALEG

[3] = biological target: T3, 4H3340-AA; conditions: mean of both orientations
T3 chain: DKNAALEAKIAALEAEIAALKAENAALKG

[4] = biological target: T4, 4H380-AA; conditions: mean of both orientations
T4 chain: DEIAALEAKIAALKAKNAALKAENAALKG

[5] = biological target: T5, 4H483-AA; conditions: mean of both orientations
T5 chain: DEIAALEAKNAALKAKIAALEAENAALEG

[6] = biological target: T6, 4H1351-AA; conditions: mean of both orientations
T6 chain: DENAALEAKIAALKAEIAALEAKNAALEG

[7] = biological target: T7, 4H1388-AA; conditions: mean of both orientations
T7 chain: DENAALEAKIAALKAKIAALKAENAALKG

[8] = biological target: T8, 4H1401-AA
T8 chain: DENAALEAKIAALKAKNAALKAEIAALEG

[9] = biological target: T9, 4H1874-AA; conditions: mean of both orientations
T9 chain: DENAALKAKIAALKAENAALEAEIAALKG

[10] = biological target: T10, 4H2190-AA; conditions: mean of both orientations
T10 chain: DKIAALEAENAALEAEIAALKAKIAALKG

[11] = biological target: T11, 4H2354-AA; conditions: mean of both orientations
T11 chain: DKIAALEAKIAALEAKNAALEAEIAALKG

[12] = biological target: T12, 4H2393-AA; conditions: mean of both orientations
T12 chain: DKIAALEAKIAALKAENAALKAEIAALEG

[13] = biological target: T13, 4H2466-AA; conditions: mean of both orientations
T13 chain: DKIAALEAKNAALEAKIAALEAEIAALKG

[14] = biological target: T14, 4H2642-AA; conditions: mean of both orientations
T14 chain: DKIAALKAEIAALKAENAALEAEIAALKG

[15] = biological target: T15, 4H2754-AA; conditions: mean of both orientations
T15 chain: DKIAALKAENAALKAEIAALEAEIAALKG

[16] = biological target: T16, 4H335-AA; conditions: mean of both orientations
T16 chain: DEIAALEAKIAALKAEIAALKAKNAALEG

[17] = biological target: T17, 4H3378-AA; conditions: mean of both orientations
T17 chain: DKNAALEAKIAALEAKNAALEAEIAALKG

[18] = biological target: T18, 4H342-AA; conditions: mean of both orientations
T18 chain: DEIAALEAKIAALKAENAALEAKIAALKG

[19] = biological target: T19, 4H3655-AA; conditions: mean of both orientations
T19 chain: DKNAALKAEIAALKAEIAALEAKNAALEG

[20] = biological target: T20, 4H454-AA; conditions: mean of both orientations
T20 chain: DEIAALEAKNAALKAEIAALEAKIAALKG

[21] = biological target: T21, 4H48-AA; conditions: mean of both orientations
T21 chain: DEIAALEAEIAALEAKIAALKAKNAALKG

[22] = biological target: T22, 4H780-AA; conditions: mean of both orientations
T22 chain: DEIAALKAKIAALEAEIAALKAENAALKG

[23] = biological target: T23, 4H881-AA; conditions: mean of both orientations
T23 chain: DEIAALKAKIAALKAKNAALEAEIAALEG

[24] = biological target: T24, AP3-AA; conditions: mean of both orientations
T24 chain: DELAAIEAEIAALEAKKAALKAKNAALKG

[25] = biological target: T25, O5-AA; conditions: mean of both orientations
T25 chain: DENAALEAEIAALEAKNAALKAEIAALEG

[26] = biological target: T26, P1-AA; conditions: mean of both orientations
T26 chain: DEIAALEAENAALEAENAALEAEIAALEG

[27] = biological target: T27, P7-AA; conditions: mean of both orientations
T27 chain: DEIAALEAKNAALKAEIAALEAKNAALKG

[28] = biological target: T28, zCON9_A
T28 chain: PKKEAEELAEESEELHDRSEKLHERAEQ

[29] = biological target: T29, 4H2736-AA; conditions: mean of both orientations
T29 chain: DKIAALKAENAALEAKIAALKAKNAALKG

[30] = biological target: T30, O11-AA; conditions: mean of both orientations
T30 chain: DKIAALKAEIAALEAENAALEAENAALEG

[31] = biological target: T31, 4H1478-AA; conditions: mean of both orientations
T31 chain: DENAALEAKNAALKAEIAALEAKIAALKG

[32] = biological target: T32, 4H1579-AA; conditions: mean of both orientations
T32 chain: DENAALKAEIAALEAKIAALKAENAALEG

[33] = biological target: T33, 4H1626-AA; conditions: mean of both orientations
T33 chain: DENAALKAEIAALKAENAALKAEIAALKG

[34] = biological target: T34, 4H1877-AA; conditions: mean of both orientations
T34 chain: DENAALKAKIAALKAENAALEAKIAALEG

[35] = biological target: T35, 4H2162-AA; conditions: mean of both orientations
T35 chain: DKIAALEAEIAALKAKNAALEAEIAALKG

B1: 4H249-AA (peptide)
chain: DEIAALEAENAALKAKNAALKAEIAALEG
**Q.** What does the source list for B1?
**A.** interaction score [1]: -1.35; interaction score [2]: -1.28; interaction score [3]: -1.45; interaction score [4]: -1.27; interaction score [5]: -1.76

B2: 4H1153-AA (peptide)
chain: DENAALEAENAALEAEIAALEAEIAALEG
**Q.** For B2, which interaction score [6] is on record?
**A.** -1.51

**Q.** What about the interaction score [7] of the same binder?
**A.** 0.435

**Q.** And the interaction score ([8]; mean of both orientations)?
**A.** -0.873

**Q.** And the interaction score [9]?
**A.** -1.61

**Q.** What about the interaction score [10] of the same binder?
**A.** -0.187

**Q.** And the interaction score [11]?
**A.** -1.55

**Q.** What about the interaction score [12] of the same binder?
**A.** -1.3

**Q.** And the interaction score [13]?
**A.** -1.53

**Q.** What about the interaction score [14] of the same binder?
**A.** -1.43

**Q.** What about the interaction score [15] of the same binder?
**A.** -0.638

**Q.** And the interaction score [16]?
**A.** -0.418

**Q.** What about the interaction score [17] of the same binder?
**A.** -1.72

**Q.** What about the interaction score [18] of the same binder?
**A.** -1.39

**Q.** What about the interaction score [19] of the same binder?
**A.** -0.01

**Q.** What about the interaction score [20] of the same binder?
**A.** 0.894

**Q.** What about the interaction score [21] of the same binder?
**A.** -1.38

**Q.** What about the interaction score [22] of the same binder?
**A.** -1.44

**Q.** What about the interaction score [23] of the same binder?
**A.** -1.26

B3: 4H3606-AA (peptide)
chain: DKNAALKAEIAALEAENAALEAKIAALKG
**Q.** Which interaction score [19] does the source give for B3 here?
**A.** -1.72

**Q.** What about the interaction score [20] of the same binder?
**A.** 1.23

**Q.** And the interaction score [21]?
**A.** -0.695

**Q.** What about the interaction score [23] of the same binder?
**A.** 2.32

**Q.** What about the interaction score [24] of the same binder?
**A.** -1.06

**Q.** What about the interaction score [25] of the same binder?
**A.** 2.23

**Q.** What about the interaction score [26] of the same binder?
**A.** -1.64

**Q.** What about the interaction score [27] of the same binder?
**A.** 1.24

**Q.** And the interaction score [28]?
**A.** -1.36

B4: 4H1350-AA (peptide)
chain: DENAALEAKIAALKAEIAALEAKIAALKG
**Q.** What does the source list for B4?
**A.** interaction score [29]: -1.22; interaction score [30]: -0.612

B5: 4H1310-AA (peptide)
chain: DENAALEAKIAALEAENAALKAKIAALKG
**Q.** B5 was tested. Which interaction score [6] did it give?
**A.** -1.27

**Q.** What about the interaction score [7] of the same binder?
**A.** -1.2

**Q.** What about the interaction score ([8]; mean of both orientations) of the same binder?
**A.** 1.11

**Q.** And the interaction score [31]?
**A.** -1.2

**Q.** What about the interaction score [32] of the same binder?
**A.** -1.2

**Q.** What about the interaction score [33] of the same binder?
**A.** -0.373

**Q.** What about the interaction score [9] of the same binder?
**A.** 2.14

**Q.** And the interaction score [34]?
**A.** 1.5

**Q.** And the interaction score [35]?
**A.** -0.945

**Q.** What about the interaction score [17] of the same binder?
**A.** -0.0826

B6: 4H1401-AA (peptide)
chain: DENAALEAKIAALKAKNAALKAEIAALEG
**Q.** With B6 as the binder, how does the interaction score [8] read?
**A.** -1.49

**Q.** What about the interaction score [9] of the same binder?
**A.** 1.26

**Q.** What about the interaction score [10] of the same binder?
**A.** 1.09

**Q.** What about the interaction score [11] of the same binder?
**A.** -1.3

**Q.** What about the interaction score [12] of the same binder?
**A.** -1.43

**Q.** And the interaction score [13]?
**A.** -1.54

**Q.** What about the interaction score [14] of the same binder?
**A.** 1.3

**Q.** What about the interaction score [15] of the same binder?
**A.** -1.71

**Q.** What about the interaction score [17] of the same binder?
**A.** -0.723

**Q.** What about the interaction score [18] of the same binder?
**A.** 2.15

**Q.** And the interaction score [19]?
**A.** -1.48

**Q.** And the interaction score [20]?
**A.** -1.2

**Q.** And the interaction score [21]?
**A.** 0.338

**Q.** What about the interaction score [23] of the same binder?
**A.** -0.879

**Q.** And the interaction score [24]?
**A.** -0.918

**Q.** What about the interaction score [26] of the same binder?
**A.** -0.911

**Q.** And the interaction score [27]?
**A.** -1.39

**Q.** And the interaction score [28]?
**A.** -1.95

B7: 4H1385-AA (peptide)
chain: DENAALEAKIAALKAKIAALKAEIAALEG
**Q.** B7 was tested. Which interaction score [31] did it give?
**A.** 0.852

**Q.** And the interaction score [32]?
**A.** -0.0818

**Q.** What about the interaction score [33] of the same binder?
**A.** -1.57

**Q.** And the interaction score [34]?
**A.** -0.357

**Q.** What about the interaction score [35] of the same binder?
**A.** -1.63

**Q.** What about the interaction score [29] of the same binder?
**A.** -0.116

**Q.** And the interaction score [30]?
**A.** 0.214

B8: 4H171-AA (peptide)
chain: DEIAALEAENAALEAKIAALKAENAALEG
**Q.** What does the source list for B8?
**A.** interaction score [34]: -1.1; interaction score [35]: -1.5; interaction score [30]: -1.82; interaction score [25]: -0.0194

Source: paper PMC10397247
